We go through one molecule from PMC3531742 (The Journal of Biological Chemistry, 2012).

For experiment [1], the target named is laminin β1 LN-LEa1–4 fragment (mouse). The experiment can be described thus: SEC-MALS.
Experiment [2] shares this target. The experiment can be described thus: SPR.

B1: laminin γ1 LN-LEa1–4 fragment (domain or fragment)
chain: APLAAMDECADEGGRPQRCMPEFVNAAFNVTVVATNTCGTPPEEYCVQTGVTGVTKSCHLCDAGQQHLQHGAAFLTDYNNQADTTWWQSQTMLAGVQYPNSINLTLHLGKAFDITYVRLKFHTSRPESFAIYKRTREDGPWIPYQYYSGSCENTYSKANRGFIRTGGDEQQALCTDEFSDISPLTGGNVAFSTLEGRPSAYNFDNSPVLQEWVTATDIRVTLNRLNTFGDEVFNEPKVLKSYYYAISDFAVGGRCKCNGHASECVKNEFDKLMCNCKHNTYGVDCEKCLPFFNDRPWRRATAESASECLPCDCNGRSQECYFDPELYRSTGHGGHCTNCRDNTDGAKCERCRENFFRLGNTEACSPCHCSPVGSLSTQCDSYGRCSCKPGVMGDKCDRCQPGFHSLTEAGCRPCSCDPSGSTDECNVETGRCVCKDNVEGFNCERCKPGFFNLESSNPKGCTPAAAHHHHHH
The stoichiometry N is a count of units in the complex or per binding partner. One may read the Kd as the constant that tells how readily two partners part at equilibrium. For B1, in experiment [1], the “stoichiometry N” value is 1. Moreover, binding in experiment [2] was characterised by a dissociation constant (Kd) of 22.3 ± 1.7 µM.
